According to article PMC11655841 (Cell Death & Disease, 2024):

B1: p73 SAM domain (aa 489–550 of TAp73α) (domain or fragment)
chain: ADPSLVSFLTGLGCPNCIEYFTSQGLQSIYHLQNLTIEDLGALKIPEQYRMTIWRGLQDLKQ
B2: p73 DBD-OD-SAM (amino acids 112–550 of TAp73α) (domain or fragment)
chain: APVIPSNTDYPGPHHFEVTFQQSSTAKSATWTYSPLLKKLYCQIAKTCPIQIKVSTPPPPGTAIRAMPVYKKAEHVTDVVKRCPNHELGRDFNEGQSAPASHLIRVEGNNLSQYVDDPVTGRQSVVVPYEPPQVGTEFTTILYNFMCNSSCVGGMNRRPILIIITLEMRDGQVLGRRSFEGRICACPGRDRKADEDHYREQQALNESSAKNGAASKRAFKQSPPAVPALGAGVKKRRHGDEDTYYLQVRGRENFEILMKLKESLELMELVPQPLVDSYRQQQQLLQRPSHLQPPSYGPVLSPMNKVHGGMNKLPSVNQLVGQPPPHSSAATPNLGPVGPGMLNNHGHAVPANGEMSSSHSAQSMVSGSHCTPPPPYHADPSLVSFLTGLGCPNCIEYFTSQGLQSIYHLQNLTIEDLGALKIPEQYRMTIWRGLQDLKQ

How the values were obtained:
[1] = biological target: DARPin B9; assay: ITC; target proteins (p53 family domains) titrated to constant concentrations of DARPin; 25 °C; 50 mM HEPES pH 7.4, 150 mM NaCl, 0.5 mM TCEP; MicroCal VP-ITC
[2] = biological target: DARPin B9; assay: crystal structure; complex of DARPin and p73 domain mixed from purified proteins, isolated by SEC; sitting drop at 20 °C, 30% PEG2000MME, 0.15 M potassium bromide
[3] = biological target: DARPin 1800 LZ (DARPin 1800 dimerized via a leucine zipper) (yeast) (UniProt P03069); assay: ITC; target proteins (p53 family domains) titrated to constant concentrations of DARPin; 25 °C; 50 mM HEPES pH 7.4, 150 mM NaCl, 0.5 mM TCEP; MicroCal VP-ITC
[4] = biological target: DARPin 1800; assay: as above
[5] = biological target: DARPin 1800–1800 (DARPin 1800 fused to another DARPin 1800 via a (G4S)4 linker); assay: as above
[6] = biological target: DARPin B9 LZ (DARPin B9 dimerized via a leucine zipper) (yeast) (UniProt P03069); assay: as above
[7] = biological target: DARPin B9-B9 (DARPin B9 fused to another DARPin B9 via a (G4S)4 linker); assay: as above
[8] = biological target: DARPin 1800; assay: crystal structure; complex of DARPin and p73 domain mixed from purified proteins, isolated by SEC; sitting drop at 20 °C, 30% PEG2000MME, 0.15 M potassium bromide; conditions: scale: DARPin 1800 per p73 OD
[9] = biological target: the molecule itself; assay: as above

Row | Binder | Kd [1] [nM] | stoichiometry N (p73 SAM domain per DARPin B9) [2] | Kd [3] [nM] | Kd [4] [nM] | Kd [5] [nM] | Kd [6] [nM] | Kd [7] [nM] | stoichiometry N [8] | binding result [9]
1 | B1 | 58.8 | 1 |  |  |  |  |  |  | 
2 | B2 | 309 |  | 4 | 67 | 13 | 64 | 46 |  | 
3 | DEDTYYLQVRGRENFEILMKLKESLELMELVPQPLVDSYRQQQQLLQR (domain or fragment, UniProt O15350 351-398, looked up) [p73 oligomerization domain (aa 351–398 of TAp73α)] |  |  |  | 94.5 |  |  |  | 2 | binds
